Assay results taken from publication PMC3827224.

Target: rhodamine-labelled fibronectin from human plasma (human)

FnBPA-derived peptide containing fibronectin-binding repeats 1-11 (FnBR1-11) (domain or fragment)
decrease of rhodamine-fibronectin incorporation into the extracellular matrix of HDF fibroblasts (fluorescence plate assay), 500 nM bead-immobilized peptide, after 12 and 24 hours: 90%

F1 functional upstream domain (FUD) peptide of Streptococcus pyogenes F1 (domain or fragment)
decrease of rhodamine-fibronectin incorporation into the extracellular matrix of HDF fibroblasts (fluorescence plate assay), 500 nM bead-immobilized peptide, after 12 and 24 hours: 80%
